Residue numbers refer to the chain shown, from its start. Names and notes keep the numbering of the source. One block for each binder: values may come before it.
Key:
[1] = biological target: T1, JNK1-dc20 (JNK1 with the C-terminal 20 residues truncated) (human, UniProt P45983 1-427); assay: ITC
[2] = biological target: T1, JNK1-dc20 (JNK1 with the C-terminal 20 …); assay: ITC; 2 mM EDTA
[3] = biological target: T1, JNK1-dc20 (JNK1 with the C-terminal 20 …); assay: FP
[4] = biological target: T1, JNK1-dc20 (JNK1 with the C-terminal 20 …); assay: FP; EDTA

T1 sequence (P45983 other isoform, or with tags, fused parts or gaps): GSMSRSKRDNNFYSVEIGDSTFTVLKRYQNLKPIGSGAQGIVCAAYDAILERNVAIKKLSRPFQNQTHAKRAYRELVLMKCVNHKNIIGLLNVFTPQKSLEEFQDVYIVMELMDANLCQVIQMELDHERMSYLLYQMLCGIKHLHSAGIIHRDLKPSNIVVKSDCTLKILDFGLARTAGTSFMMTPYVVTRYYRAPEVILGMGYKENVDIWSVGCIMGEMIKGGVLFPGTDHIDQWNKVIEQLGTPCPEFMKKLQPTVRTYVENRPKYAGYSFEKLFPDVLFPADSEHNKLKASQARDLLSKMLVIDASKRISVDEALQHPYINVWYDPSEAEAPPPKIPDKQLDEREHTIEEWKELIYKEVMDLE

B1: ATF2(19–58)-His6 (MBP removed, for ITC) (domain or fragment)
chain: MSDDKPFLCTAPGCGQRFTNEDHLAVHKHKHEMTLKFGPA
Kd [1]: 5.1 µM
Kd [2]: 48 µM

B5: MBP-c-Jun(1–78) K35E (domain or fragment)
chain: MTAKMETTFYDDALNASFLPSESGPYGYSNPKILEQSMTLNLADPVGSLKPHLRAKNSDLLTSPDVGLLKLASPELER
Kd [3]: 55 µM

The remaining binders from weak to strong by Kd [3], led by results:

Kd [3]: 4.5 µM
B2: ATF2(19–58) as used in the competitive fluorescence polarisation assay (domain or fragment)
chain: B1 chain

Kd [3]: 3.8 µM
Kd [4]: 4.9 µM
B4: MBP-c-Jun(1–78) (domain or fragment)
chain: B5 chain with E35K

Kd [3]: 3.5 µM
Kd [4]: 53 µM
B3: MBP-ATF2(19–100) (domain or fragment)
chain: MSDDKPFLCTAPGCGQRFTNEDHLAVHKHKHEMTLKFGPARNDSVIVADQTPTPTRFLKNCEEVGLFNELASPFENEFKKAS

From paper PMC7666158 (2020)
